According to patent US20210388087A1 (Chugai, published 2021):
Where a chain is given by its changes, count along the chain named. In names and notes the source's numbering stands.

B1: H183/L072 VH G26A (antibody, name in Kabat numbering, V domains shown)
VH: QVQLVESGGGLVQPGRSLRLSCAASAFTFSNAWMHWVRQAPGKGLEWVAQIKDKGNAYAAYYAPSVKGRFTISRDDSKNSIYLQMNSLKTEDTAVYYCHYVHYASASTVLPAFGVDAWGQGTTVTVSS
VL: DIVMTQSPLSLPVTPGEPASISCQASQELVHMNRNTYLHWYQQKPGQAPRLLIYKVSNRFPGVPDRFSGSGSGTDFTLKISRVEAEDVGVYYCAQGTSVPFTFGQGTKLEIK
B2: H183/L072 VH A54M (antibody, name in Kabat numbering, V domains shown)
VH: B1 VH with A26G, A57M
VL: B1 VL
B3: H183/L072 VH A54N (antibody, name in Kabat numbering, V domains shown)
VH: B1 VH with A26G, A57N
VL: B1 VL
B4: H183/L072 VH A32D (antibody, name in Kabat numbering, V domains shown)
VH: B1 VH with A26G, A32D
VL: B1 VL
B5: H183/L072 VH A32R (antibody, name in Kabat numbering, V domains shown)
VH: B1 VH with A26G, A32R
VL: B1 VL
B6: H183/L072 VH A54S (antibody, name in Kabat numbering, V domains shown)
VH: B1 VH with A26G, A57S
VL: B1 VL
B7: H183/L072 VH A32G (antibody, name in Kabat numbering, V domains shown)
VH: B1 VH with A26G, A32G
VL: B1 VL
B8: H183/L072 VH A54P (antibody, name in Kabat numbering, V domains shown)
VH: B1 VH with A26G, A57P
VL: B1 VL
B9: H183/L072 VH A54Y (antibody, name in Kabat numbering, V domains shown)
VH: B1 VH with A26G, A57Y
VL: B1 VL
B10: H183/L072 VH A32N (antibody, name in Kabat numbering, V domains shown)
VH: B1 VH with A26G, A32N
VL: B1 VL
B11: H183/L072 VH A54W (antibody, name in Kabat numbering, V domains shown)
VH: B1 VH with A26G, A57W
VL: B1 VL
B12: H183/L072 VH A54F (antibody, name in Kabat numbering, V domains shown)
VH: B1 VH with A26G, A57F
VL: B1 VL
B13: H183/L072 VH A32W (antibody, name in Kabat numbering, V domains shown)
VH: B1 VH with A26G, A32W
VL: B1 VL
B14: H183/L072 VH A32Q (antibody, name in Kabat numbering, V domains shown)
VH: B1 VH with A26G, A32Q
VL: B1 VL
B15: H183/L072 VH A54T (antibody, name in Kabat numbering, V domains shown)
VH: B1 VH with A26G, A57T
VL: B1 VL
B16: H183/L072 VH A54R (antibody, name in Kabat numbering, V domains shown)
VH: B1 VH with A26G, A57R
VL: B1 VL
B17: H183/L072 VH A56E (antibody, name in Kabat numbering, V domains shown)
VH: B1 VH with A26G, A59E
VL: B1 VL
B18: H183/L072 VH A54I (antibody, name in Kabat numbering, V domains shown)
VH: B1 VH with A26G, A57I
VL: B1 VL
B19: H183/L072 VH A32P (antibody, name in Kabat numbering, V domains shown)
VH: B1 VH with A26G, A32P
VL: B1 VL
B20: H183/L072 VH A32S (antibody, name in Kabat numbering, V domains shown)
VH: B1 VH with A26G, A32S
VL: B1 VL
B21: H183/L072 VH A54K (antibody, name in Kabat numbering, V domains shown)
VH: B1 VH with A26G, A57K
VL: B1 VL
B22: H183/L072 VH A54E (antibody, name in Kabat numbering, V domains shown)
VH: B1 VH with A26G, A57E
VL: B1 VL
B23: H183/L072 VH A54D (antibody, name in Kabat numbering, V domains shown)
VH: B1 VH with A26G, A57D
VL: B1 VL
B24: H183/L072 VH A32M (antibody, name in Kabat numbering, V domains shown)
VH: B1 VH with A26G, A32M
VL: B1 VL
B25: H183/L072 VH A32T (antibody, name in Kabat numbering, V domains shown)
VH: B1 VH with A26G, A32T
VL: B1 VL
B26: H183/L072 VH A54H (antibody, name in Kabat numbering, V domains shown)
VH: B1 VH with A26G, A57H
VL: B1 VL
B27: H183/L072 VH A56H (antibody, name in Kabat numbering, V domains shown)
VH: B1 VH with A26G, A59H
VL: B1 VL
B28: H183/L072 VH A54L (antibody, name in Kabat numbering, V domains shown)
VH: B1 VH with A26G, A57L
VL: B1 VL
B29: H183/L072 VH A32V (antibody, name in Kabat numbering, V domains shown)
VH: B1 VH with A26G, A32V
VL: B1 VL
B30: H183/L072 VH A32K (antibody, name in Kabat numbering, V domains shown)
VH: B1 VH with A26G, A32K
VL: B1 VL
B31: H183/L072 VH A56F (antibody, name in Kabat numbering, V domains shown)
VH: B1 VH with A26G, A59F
VL: B1 VL
B32: H183/L072 VH A32F (antibody, name in Kabat numbering, V domains shown)
VH: B1 VH with A26G, A32F
VL: B1 VL
B33: H183/L072 VH A32L (antibody, name in Kabat numbering, V domains shown)
VH: B1 VH with A26G, A32L
VL: B1 VL
B34: H183/L072 VH A32H (antibody, name in Kabat numbering, V domains shown)
VH: B1 VH with A26G, A32H
VL: B1 VL
B35: H183/L072 VH A56D (antibody, name in Kabat numbering, V domains shown)
VH: B1 VH with A26G, A59D
VL: B1 VL
B36: H183/L072 VH A32E (antibody, name in Kabat numbering, V domains shown)
VH: B1 VH with A26G, A32E
VL: B1 VL
B37: H183/L072 VH A56G (antibody, name in Kabat numbering, V domains shown)
VH: B1 VH with A26G, A59G
VL: B1 VL
B38: H183/L072 VH A54G (antibody, name in Kabat numbering, V domains shown)
VH: B1 VH with A26G, A57G
VL: B1 VL
B39: H183/L072 VH A54Q (antibody, name in Kabat numbering, V domains shown)
VH: B1 VH with A26G, A57Q
VL: B1 VL
B40: H183/L072 VH A32I (antibody, name in Kabat numbering, V domains shown)
VH: B1 VH with A26G, A32I
VL: B1 VL
B41: H183/L072 VH A32Y (antibody, name in Kabat numbering, V domains shown)
VH: B1 VH with A26G, A32Y
VL: B1 VL
B42: H183/L072 VH A54V (antibody, name in Kabat numbering, V domains shown)
VH: B1 VH with A26G, A57V
VL: B1 VL

Target: T1, Human CD3eg linker (human)
T1 construct: Single chain: epsilon and gamma subunits of human CD3 joined by a 29-mer linker, Flag-tag at the C-terminus; also called recombinant human CD3
T1 chain: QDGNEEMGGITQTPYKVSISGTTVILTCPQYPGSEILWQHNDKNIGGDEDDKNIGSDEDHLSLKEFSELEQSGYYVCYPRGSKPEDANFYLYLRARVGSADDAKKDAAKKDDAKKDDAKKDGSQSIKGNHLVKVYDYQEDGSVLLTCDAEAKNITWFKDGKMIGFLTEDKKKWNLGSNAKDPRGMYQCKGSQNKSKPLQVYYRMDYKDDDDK
Experiment: Biacore SPR, vs template H183/L072

Row | Binder | fold change of affinity [fold]
1 | B1 | 0.5
2 | B2 | 1
3 | B3 | 1.1
4 | B4 | 0
5 | B5 | 0.6
6 | B6 | 1
7 | B7 | 0.3
8 | B8 | 0
9 | B9 | 1
10 | B10 | 0.5
11 | B11 | 1.1
12 | B12 | 1.2
13 | B13 | 0.1
14 | B14 | 0.4
15 | B15 | 0.9
16 | B16 | 1.1
17 | B17 | 0.6
18 | B18 | 0.7
19 | B19 | 0
20 | B20 | 0.4
21 | B21 | 1.1

Row | Binder | fold change of affinity [fold]
22 | B22 | 1
23 | B23 | 0.9
24 | B24 | 0
25 | B25 | 0
26 | B26 | 1.1
27 | B27 | 0.9
28 | B28 | 1.1
29 | B29 | 0.9
30 | B30 | 0.5
31 | B31 | 0.6
32 | B32 | 0
33 | B33 | 0
34 | B34 | 0.5
35 | B35 | 0.5
36 | B36 | 0.1
37 | B37 | 0.7
38 | B38 | 1
39 | B39 | 1.1
40 | B40 | 0.1
41 | B41 | 0
42 | B42 | 0.7
